Laboratory results as given in US20100081612A1 (GENERAL HOSPITAL, published 2010).
Where no end group is shown, it is not given here. [ ]: non-standard residue; d: D form. Gly(1-amidinopiperidin-4-yl) = N=C(N)N1CCC([C@H](N)C(=O)O)CC1; Cha = N[C@@H](CC1CCCCC1)C(=O)O; Nle = CCCC[C@H](N)C(=O)O

T1: wild-type human PTHR (human, UniProt Q03431 27-593)
T1 construct: whole, on cells; also called PTHR-WT; intact PTHR
T1 sequence (looked up): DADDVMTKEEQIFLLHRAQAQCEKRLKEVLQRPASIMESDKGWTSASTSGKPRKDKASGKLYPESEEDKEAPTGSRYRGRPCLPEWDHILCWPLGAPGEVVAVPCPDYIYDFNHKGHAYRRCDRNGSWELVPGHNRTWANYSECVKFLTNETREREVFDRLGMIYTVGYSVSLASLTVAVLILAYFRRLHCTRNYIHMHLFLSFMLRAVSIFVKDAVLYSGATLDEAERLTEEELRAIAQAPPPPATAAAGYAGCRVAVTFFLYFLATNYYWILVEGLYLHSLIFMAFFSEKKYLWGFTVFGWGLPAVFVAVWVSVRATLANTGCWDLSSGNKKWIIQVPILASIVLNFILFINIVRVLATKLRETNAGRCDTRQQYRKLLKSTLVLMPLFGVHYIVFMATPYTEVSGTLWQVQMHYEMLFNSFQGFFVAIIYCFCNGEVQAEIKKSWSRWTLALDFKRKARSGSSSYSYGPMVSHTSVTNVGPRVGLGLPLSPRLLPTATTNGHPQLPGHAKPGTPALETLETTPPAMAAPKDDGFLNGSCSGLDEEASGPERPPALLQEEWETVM

B1: [Ala^1,Arg^19]hPTH(1-31)NH2 Ser^17→Cha (peptide)
peptide: AVSEIQLMHNLGKHLN[Cha]MRRVEWLRKKLQDV-NH2
modifications: N-terminus assumed
SMILES: CC[C@H](C)[C@H](NC(=O)[C@H](CCC(=O)O)NC(=O)[C@H](CO)NC(=O)[C@@H](NC(=O)[C@H](C)N)C(C)C)C(=O)N[C@@H](CCC(N)=O)C(=O)N[C@@H](CC(C)C)C(=O)N[C@@H](CCSC)C(=O)N[C@@H](Cc1c[nH]cn1)C(=O)N[C@@H](CC(N)=O)C(=O)N[C@@H](CC(C)C)C(=O)NCC(=O)N[C@@H](CCCCN)C(=O)N[C@@H](Cc1c[nH]cn1)C(=O)N[C@@H](CC(C)C)C(=O)N[C@@H](CC(N)=O)C(=O)N[C@@H](CC1CCCCC1)C(=O)N[C@@H](CCSC)C(=O)N[C@@H](CCCNC(=N)N)C(=O)N[C@@H](CCCNC(=N)N)C(=O)N[C@H](C(=O)N[C@@H](CCC(=O)O)C(=O)N[C@@H](Cc1c[nH]c2ccccc12)C(=O)N[C@@H](CC(C)C)C(=O)N[C@@H](CCCNC(=N)N)C(=O)N[C@@H](CCCCN)C(=O)N[C@@H](CCCCN)C(=O)N[C@@H](CC(C)C)C(=O)N[C@@H](CCC(N)=O)C(=O)N[C@@H](CC(=O)O)C(=O)N[C@H](C(N)=O)C(C)C)C(C)C
B2: PTH(1-31)NH2 Arg^20→Nle (peptide)
peptide: SVSEIQLMHNLGKHLNSME[Nle]VEWLRKKLQDV-NH2
modifications: N-terminus assumed
SMILES: CCCC[C@H](NC(=O)[C@H](CCC(=O)O)NC(=O)[C@H](CCSC)NC(=O)[C@H](CO)NC(=O)[C@H](CC(N)=O)NC(=O)[C@H](CC(C)C)NC(=O)[C@H](Cc1c[nH]cn1)NC(=O)[C@H](CCCCN)NC(=O)CNC(=O)[C@H](CC(C)C)NC(=O)[C@H](CC(N)=O)NC(=O)[C@H](Cc1c[nH]cn1)NC(=O)[C@H](CCSC)NC(=O)[C@H](CC(C)C)NC(=O)[C@H](CCC(N)=O)NC(=O)[C@@H](NC(=O)[C@H](CCC(=O)O)NC(=O)[C@H](CO)NC(=O)[C@@H](NC(=O)[C@@H](N)CO)C(C)C)[C@@H](C)CC)C(=O)N[C@H](C(=O)N[C@@H](CCC(=O)O)C(=O)N[C@@H](Cc1c[nH]c2ccccc12)C(=O)N[C@@H](CC(C)C)C(=O)N[C@@H](CCCNC(=N)N)C(=O)N[C@@H](CCCCN)C(=O)N[C@@H](CCCCN)C(=O)N[C@@H](CC(C)C)C(=O)N[C@@H](CCC(N)=O)C(=O)N[C@@H](CC(=O)O)C(=O)N[C@H](C(N)=O)C(C)C)C(C)C
B3: PTH(1-31)NH2 Arg^20→PipGly (peptide)
peptide: SVSEIQLMHNLGKHLNSME[Gly(1-amidinopiperidin-4-yl)]VEWLRKKLQDV-NH2
modifications: N-terminus assumed
SMILES: CC[C@H](C)[C@H](NC(=O)[C@H](CCC(=O)O)NC(=O)[C@H](CO)NC(=O)[C@@H](NC(=O)[C@@H](N)CO)C(C)C)C(=O)N[C@@H](CCC(N)=O)C(=O)N[C@@H](CC(C)C)C(=O)N[C@@H](CCSC)C(=O)N[C@@H](Cc1c[nH]cn1)C(=O)N[C@@H](CC(N)=O)C(=O)N[C@@H](CC(C)C)C(=O)NCC(=O)N[C@@H](CCCCN)C(=O)N[C@@H](Cc1c[nH]cn1)C(=O)N[C@@H](CC(C)C)C(=O)N[C@@H](CC(N)=O)C(=O)N[C@@H](CO)C(=O)N[C@@H](CCSC)C(=O)N[C@@H](CCC(=O)O)C(=O)N[C@H](C(=O)N[C@H](C(=O)N[C@@H](CCC(=O)O)C(=O)N[C@@H](Cc1c[nH]c2ccccc12)C(=O)N[C@@H](CC(C)C)C(=O)N[C@@H](CCCNC(=N)N)C(=O)N[C@@H](CCCCN)C(=O)N[C@@H](CCCCN)C(=O)N[C@@H](CC(C)C)C(=O)N[C@@H](CCC(N)=O)C(=O)N[C@@H](CC(=O)O)C(=O)N[C@H](C(N)=O)C(C)C)C(C)C)C1CCN(C(=N)N)CC1

biological target: T1, wild-type human PTHR; assay: competition binding, HKRK-B7 cells, 125I-PTH(1-34) tracer
Method: (§1) Receptor binding—Binding to the wild-type human PTHR in intact HKRK-B7 cells and ROS 17/2.8 cells was assessed using ¹²⁵I-PTH(1-34) as a tracer radioligand, as described (Shimizu, M., (2001) Endocrinology 142:3068-3074). In brief, the cells in 24-well plates (about 500,000 cells per well) were incubated in binding buffer containing radioligand (about 100,000 cpm per well) with or without unlabeled peptide ligand (3×10⁻⁹ to 1×10⁻⁵ M) for four hours at 15° C. The binding mixture was then removed by aspiration, the cells were rinsed three times with binding buffer, lysed in 1 M NaOH, and the entire lysate was counted for gamma-irradiation in a gamma counter. Binding to PTHR-delNt in COS-7 cell membranes was assessed in 96-well, vacuum filtration plates (Multiscreen-Durapore HV, […], Millipore Corp., Millford, Mass.) using ¹²⁵I-[Aib^{1,3},M]PTH(1-15)NH₂ as a tracer radioligand, as described (Dean, T., (2006) Mol Endocrinol 20:931-942). In brief, cell membranes (20 μg/well) were incubated in membrane binding buffer containing radioligand (30,000 cpm/well) with or without unlabeled peptide ligand (3×10⁻⁹ to 1×10⁻⁵ M) for 90 minutes at 21° C. The plates were then subject to rapid vacuum filtration, the filters were washed once with buffer, detached from the plate and counted for gamma-irradiation in a gamma counter. Non-specific binding was defined as the binding observed in the presence of 1×10⁻⁶ M PTH(1-31)NH₂ for HKRK-B7 and ROS 17/2.8 cells, and 1×10⁻⁶ M [Aib^{1,3},M]PTH(1-15)NH₂ for PTHR-delNt. Specifically bound radioactivity was calculated as a percentage of the radioactivity specifically bound in the absence of competing ligand.
Cyclohexylalanine and glutamate substitutions were introduced into [Ala¹,Arg¹⁹]hPTH(1-31)NH₂. The helical residue values were calculated from [θ]₂₂₂, the mean-residue elipticities observed in the CD spectra at 222 nm. Competition binding studies were performed in intact HKRK-B7 cells stably transfected with the hPTHR using ¹²⁵I-[Nle^{8,21},Tyr³⁴]rPTH(1-34)NH ₂ tracer radioligand, and in membranes prepared from COS-7 cells transiently transfected with hPTHR-delNt and a negative-dominant Gαs using ¹²⁵I-[Aib^{1,3},Nle⁸,Gln¹⁰,Har¹¹,Ala¹²,Trp¹⁴,Tyr¹⁵]rPTH(1-15)NH₂ tracer radioligand. Binding values (nM) are means (+/−s.e.m.) of data from the number of experiments indicated (n).

Binder | IC50 [nM]
AVSEIQLMHNLGKHLNSMRRVEWLEKKLQDV-NH2 [[Ala^1,Arg^19]hPTH(1-31)NH2 Arg^25→Glu] | 189
AVSEIQLMHNLGKHLNSMRRVEWLREKLQDV-NH2 [[Ala^1,Arg^19]hPTH(1-31)NH2 Lys^26→Glu] | 60
AVSEIQLMHNLGKHLNSMRRVEWLRKELQDV-NH2 [[Ala^1,Arg^19]hPTH(1-31)NH2 Lys^27→Glu] | 156
AVSEIQLMHNLGKHLNSMRREEWLRKKLQDV-NH2 [[Ala^1,Arg^19]hPTH(1-31)NH2 Val^21→Glu] | 447
B1 | 112

biological target: T1, wild-type human PTHR; assay: as above; remark: another data set of the same source
Method: as §1
Alanine-Scan of the PTH(17-31) domain—Each residue in the (17-31) region of PTH(1-31)NH₂ was individually replaced with alanine and the effects of the substitutions on binding to the intact human PTHR stably expressed in HKRK-B7 cells was assessed. Competition binding studies were performed using whole cells and ¹²⁵I-PTH(1-34) (¹²⁵I-[Nle^{8,21},Tyr³⁴]ratPTH(1-34)NH₂) as a tracer radioligand.

Binder | IC50 [nM]
SVSEIQLMHNLGKHLNSMEQVEWLRKKLQDV-NH2 [PTH(1-31)NH2 Arg^20→Gln] | > 10000
SVSEIQLMHNLGKHLNSMEEVEWLRKKLQDV-NH2 [PTH(1-31)NH2 Arg^20→Glu] | > 10000
SVSEIQLMHNLGKHLNSMEKVEWLRKKLQDV-NH2 [PTH(1-31)NH2 Arg^20→Lys] | > 10000
SVSEIQLMHNLGKHLNSMARVAWLRKKLQDV-NH2 [PTH(1-31)NH2 Glu^19,22→Ala,Ala] | 49
SVSEIQLMHNLGKHLNSMRRVAWLRKKLQDV-NH2 [PTH(1-31)NH2 Glu^19,22→Arg,Ala] | 54
SVSEIQLMHNLGKHLNSMRRVEWLRKKLQDV-NH2 [PTH(1-31)NH2 Glu^19→Arg] | 42
B2 | 15400
SVSEIQLMHNLGKHLNSMEXVEWLRKKLQDV (citrulline (Cit) at 20; C-terminal amide) [PTH(1-31)NH2 Arg^20→Cit] | 11900
B3 | 14100

biological target: PTHR-delNt (human) (UniProt Q03431); assay: competition binding, COS-7 membranes, 125I-[Aib1,3,M]PTH(1-15) tracer

Binder | IC50 [nM] | fold difference of IC50 from PTH(1-31)NH2 [fold] | fold reduction in binding affinity vs PTH(1-31)NH2 [fold] | fold reduction in binding affinity vs [Ala^1,Arg^19]PTH(1-31)NH2 [fold] | fold change in binding affinity vs [Ala^1,Arg^19]PTH(1-31)NH2 [fold]
SVSEIQLMHNLGKHLNSMEQVEWLRKKLQDV-NH2 [PTH(1-31)NH2 Arg^20→Gln] | 10300 | < 4 | – | – | –
SVSEIQLMHNLGKHLNSMEEVEWLRKKLQDV-NH2 [PTH(1-31)NH2 Arg^20→Glu] | 14700 | – | 4 | – | –
SVSEIQLMHNLGKHLNSMEKVEWLRKKLQDV-NH2 [PTH(1-31)NH2 Arg^20→Lys] | 7100 | < 4 | – | – | –
SVSEIQLMHNLGKHLNSMARVAWLRKKLQDV-NH2 [PTH(1-31)NH2 Glu^19,22→Ala,Ala] | 619 | – | – | – | –
SVSEIQLMHNLGKHLNSMRRVAWLRKKLQDV-NH2 [PTH(1-31)NH2 Glu^19,22→Arg,Ala] | 360 | – | – | – | –
SVSEIQLMHNLGKHLNSMRRVEWLRKKLQDV-NH2 [PTH(1-31)NH2 Glu^19→Arg] | 1230 | – | – | – | –
AVSEIQLMHNLGKHLNSMRRVEWLEKKLQDV-NH2 [[Ala^1,Arg^19]hPTH(1-31)NH2 Arg^25→Glu] | 1630 | – | – | 4 | –
AVSEIQLMHNLGKHLNSMRRVEWLREKLQDV-NH2 [[Ala^1,Arg^19]hPTH(1-31)NH2 Lys^26→Glu] | 832 | – | – | – | –
AVSEIQLMHNLGKHLNSMRRVEWLRKELQDV-NH2 [[Ala^1,Arg^19]hPTH(1-31)NH2 Lys^27→Glu] | 1270 | – | – | – | –
AVSEIQLMHNLGKHLNSMRREEWLRKKLQDV-NH2 [[Ala^1,Arg^19]hPTH(1-31)NH2 Val^21→Glu] | 1620 | – | – | 4 | –
B2 | 10700 | < 4 | – | – | –
B1 | 179 | – | – | – | < 3
SVSEIQLMHNLGKHLNSMEXVEWLRKKLQDV (citrulline (Cit) at 20; C-terminal amide) [PTH(1-31)NH2 Arg^20→Cit] | 10600 | < 4 | – | – | –
B3 | 6600 | < 4 | – | – | –

biological target: T1, wild-type human PTHR; assay: competition binding, HKRK-B7 cells, 125I-PTH(1-34) tracer; remark: another data set of the same source

Binder | fold enhancement in binding affinity vs PTH(1-31)NH2 [fold] | fold reduction in binding affinity vs [Ala^1,Arg^19]PTH(1-31)NH2 [fold] | fold reduction in binding affinity vs PTH(1-31)NH2 [fold] | fold change in binding affinity vs [Ala^1,Arg^19]PTH(1-31)NH2 [fold]
SVSEIQLMHNLGKHLNSMRRVEWLRKKLQDV-NH2 [PTH(1-31)NH2 Glu^19→Arg] | ≤ 2 | – | – | –
AVSEIQLMHNLGKHLNSMRREEWLRKKLQDV-NH2 [[Ala^1,Arg^19]hPTH(1-31)NH2 Val^21→Glu] | – | 12 | – | –
B2 | – | – | ~200 | –
B1 | – | – | – | ≤ 6
SVSEIQLMHNLGKHLNSMEXVEWLRKKLQDV (citrulline (Cit) at 20; C-terminal amide) [PTH(1-31)NH2 Arg^20→Cit] | – | – | ~200 | –
B3 | – | – | ~200 | –
